Experiments:
Assay in all cases: holdup assay
Design in all cases: key: below the threshold = too weak to quantify, mostly under pKd 3.1 to 4
Conditions in all cases: plain residues with an end cap or a label only (N-terminal biotin on a linker: ado-ado)
[1] = molecular target: T1, APBA2_1, Q99767
T1 sequence (Q99767 563-664, limits assumed, looked up): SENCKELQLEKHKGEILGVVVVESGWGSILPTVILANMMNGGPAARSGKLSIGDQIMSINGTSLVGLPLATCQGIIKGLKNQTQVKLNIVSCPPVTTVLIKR

[2] = molecular target: ARHGEF12, Q9NZN5-2
ARHGEF12, Q9NZN5-2, sequence (Q9NZN5 other isoform, or with tags, fused parts or gaps): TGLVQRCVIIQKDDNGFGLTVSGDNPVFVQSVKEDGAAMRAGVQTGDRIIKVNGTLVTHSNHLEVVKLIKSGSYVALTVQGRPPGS

[3] = molecular target: CASK, O14936
CASK, O14936, sequence (O14936 487-570): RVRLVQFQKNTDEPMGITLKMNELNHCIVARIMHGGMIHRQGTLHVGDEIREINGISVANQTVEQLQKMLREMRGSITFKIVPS

[4] = molecular target: T2, DLG3_1, Q92796
T2 sequence (Q92796 125-227, limits assumed, looked up): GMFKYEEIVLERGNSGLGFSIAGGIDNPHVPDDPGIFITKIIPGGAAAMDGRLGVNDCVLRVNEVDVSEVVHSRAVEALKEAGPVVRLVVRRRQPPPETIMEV

[5] = molecular target: T3, DLG3_2, Q92796
T3 sequence (Q92796 221-321, limits assumed, looked up): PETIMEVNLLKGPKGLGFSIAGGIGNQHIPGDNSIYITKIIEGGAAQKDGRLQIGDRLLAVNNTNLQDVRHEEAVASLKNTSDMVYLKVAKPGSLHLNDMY

[6] = molecular target: DLG5_1, Q8TDM6
DLG5_1, Q8TDM6, sequence (Q8TDM6 617-713): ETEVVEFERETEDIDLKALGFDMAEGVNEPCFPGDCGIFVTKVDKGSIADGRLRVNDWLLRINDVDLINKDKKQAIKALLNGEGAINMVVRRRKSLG

[7] = molecular target: FRMPD3, Q5JV73
FRMPD3, Q5JV73, sequence (Q5JV73 12-100): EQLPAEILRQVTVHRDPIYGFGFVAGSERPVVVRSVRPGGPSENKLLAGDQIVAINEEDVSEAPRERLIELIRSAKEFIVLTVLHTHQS

[8] = molecular target: GOPC, Q9HD26
[9] = molecular target: GRASP, Q7Z6J2
GRASP, Q7Z6J2, sequence (Q7Z6J2 96-193): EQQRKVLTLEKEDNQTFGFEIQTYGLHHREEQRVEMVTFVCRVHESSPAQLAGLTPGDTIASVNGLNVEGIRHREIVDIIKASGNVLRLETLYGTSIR

[10] = molecular target: GRID2IP_1, A4D2P6
GRID2IP_1, A4D2P6, sequence (A4D2P6 1-87): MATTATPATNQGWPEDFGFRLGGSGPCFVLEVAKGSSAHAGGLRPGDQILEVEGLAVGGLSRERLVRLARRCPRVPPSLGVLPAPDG

[11] = molecular target: IL16_4, Q14005
IL16_4, Q14005, sequence (Q14005 1229-1329): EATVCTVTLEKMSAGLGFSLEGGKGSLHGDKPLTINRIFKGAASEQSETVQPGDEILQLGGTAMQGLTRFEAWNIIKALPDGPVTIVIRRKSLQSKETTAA

[12] = molecular target: LIMK2, P53671
LIMK2, P53671, sequence (P53671 143-248): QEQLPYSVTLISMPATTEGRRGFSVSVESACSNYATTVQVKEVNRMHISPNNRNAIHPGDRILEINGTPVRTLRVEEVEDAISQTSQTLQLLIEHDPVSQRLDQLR

[13] = molecular target: MAGI1_2, Q96QZ7
MAGI1_2, Q96QZ7, sequence (Q96QZ7 456-580): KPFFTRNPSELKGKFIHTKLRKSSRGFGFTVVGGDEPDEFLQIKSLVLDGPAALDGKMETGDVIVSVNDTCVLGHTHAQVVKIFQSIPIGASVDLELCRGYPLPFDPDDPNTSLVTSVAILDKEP

[14] = molecular target: MAST2, Q6P0Q8
MAST2, Q6P0Q8, sequence (Q6P0Q8 1099-1202): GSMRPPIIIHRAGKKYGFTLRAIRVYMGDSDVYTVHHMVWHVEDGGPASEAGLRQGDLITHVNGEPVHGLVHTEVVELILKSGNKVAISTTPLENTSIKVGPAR

[15] = molecular target: T4, MPDZ_10, O75970
T4 sequence (O75970 1624-1722, limits assumed, looked up): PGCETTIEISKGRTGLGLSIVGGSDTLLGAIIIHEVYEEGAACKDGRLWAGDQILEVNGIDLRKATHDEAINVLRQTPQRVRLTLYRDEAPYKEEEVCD

[16] = molecular target: T5, NHERF3_1, Q5T2W1
T5 sequence (Q5T2W1 4-100, limits assumed, looked up): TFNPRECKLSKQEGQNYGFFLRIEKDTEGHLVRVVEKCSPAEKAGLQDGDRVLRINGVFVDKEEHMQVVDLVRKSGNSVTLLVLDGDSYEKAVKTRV

[17] = molecular target: NHERF4_1, Q86UT5-2
NHERF4_1, Q86UT5-2, sequence (Q86UT5 other isoform, or with tags, fused parts or gaps): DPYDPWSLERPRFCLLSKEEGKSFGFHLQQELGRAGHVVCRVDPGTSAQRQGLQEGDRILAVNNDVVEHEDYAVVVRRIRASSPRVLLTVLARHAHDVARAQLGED

[18] = molecular target: PDZRN4_1, Q6ZMN7
PDZRN4_1, Q6ZMN7, sequence (Q6ZMN7 213-318): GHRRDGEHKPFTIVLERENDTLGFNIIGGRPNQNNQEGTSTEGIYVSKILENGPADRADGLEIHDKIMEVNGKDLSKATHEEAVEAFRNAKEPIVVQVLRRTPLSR

[19] = molecular target: T6, RHPN1, Q8TCX5
T6 sequence (Q8TCX5 508-602, limits assumed, looked up): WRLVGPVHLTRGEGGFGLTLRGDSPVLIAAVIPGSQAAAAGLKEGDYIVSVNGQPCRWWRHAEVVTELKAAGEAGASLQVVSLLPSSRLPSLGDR

[20] = molecular target: SCRIB_1, Q14160
SCRIB_1, Q14160, sequence (Q14160 718-814): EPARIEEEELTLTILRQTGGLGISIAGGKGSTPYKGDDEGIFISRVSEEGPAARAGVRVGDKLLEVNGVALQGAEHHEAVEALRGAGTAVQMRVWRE

[21] = molecular target: T7, SHANK1, Q9Y566
T7 sequence (Q9Y566 658-767, limits assumed, looked up): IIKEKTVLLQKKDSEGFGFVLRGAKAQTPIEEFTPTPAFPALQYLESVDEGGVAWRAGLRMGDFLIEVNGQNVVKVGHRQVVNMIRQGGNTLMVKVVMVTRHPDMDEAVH

[22] = molecular target: T8, SNTA1, Q13424
T8 sequence (Q13424 82-180, limits assumed, looked up): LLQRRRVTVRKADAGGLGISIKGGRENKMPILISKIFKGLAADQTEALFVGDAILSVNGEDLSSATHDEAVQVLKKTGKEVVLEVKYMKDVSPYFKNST

[23] = molecular target: T9, SNTG1, Q9NSN8
T9 sequence (Q9NSN8 52-150, limits assumed, looked up): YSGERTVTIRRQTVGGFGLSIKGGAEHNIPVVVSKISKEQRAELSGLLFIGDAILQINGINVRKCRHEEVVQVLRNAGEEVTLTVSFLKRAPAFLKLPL

[24] = molecular target: T10, SYNJ2BP, P57105
T10 sequence (P57105 8-110, limits assumed, looked up): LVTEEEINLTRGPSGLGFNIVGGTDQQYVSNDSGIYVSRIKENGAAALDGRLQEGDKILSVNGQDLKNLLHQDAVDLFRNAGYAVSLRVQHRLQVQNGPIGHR

[25] = molecular target: T11, TJP3_3, O95049
T11 sequence (O95049 375-456, limits assumed, looked up): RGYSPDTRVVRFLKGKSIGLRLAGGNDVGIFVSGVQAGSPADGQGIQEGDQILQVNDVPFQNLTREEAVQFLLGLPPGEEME

[26] = molecular target: T12, TX1BP3, O14907
T12 sequence (O14907 10-122, limits assumed, looked up): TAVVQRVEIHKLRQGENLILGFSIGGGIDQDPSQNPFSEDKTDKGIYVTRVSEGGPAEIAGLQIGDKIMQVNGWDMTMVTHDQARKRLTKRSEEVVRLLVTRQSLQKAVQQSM

DFRHKSSFVI [JAM3, Q9BX67]
pKd [1]: below the threshold
pKd [2]: below the threshold
pKd [3]: below the threshold
pKd [4]: below the threshold
pKd [5]: 4.16
pKd [6]: below the threshold
pKd [7]: below the threshold
pKd [8]: below the threshold
pKd [9]: below the threshold
pKd [10]: below the threshold
pKd [11]: below the threshold
pKd [12]: below the threshold
pKd [13]: below the threshold
pKd [14]: 3.76
pKd [15]: below the threshold
pKd [16]: below the threshold
pKd [17]: below the threshold
pKd [18]: below the threshold
pKd [19]: below the threshold
pKd [20]: below the threshold
pKd [21]: below the threshold
pKd [22]: below the threshold
pKd [23]: below the threshold
pKd [24]: below the threshold
pKd [25]: below the threshold
pKd [26]: below the threshold

RPGFASESKV [ADRB1, P08588]
pKd [1]: below the threshold
pKd [2]: 3.52
pKd [3]: below the threshold
pKd [4]: 3.62
pKd [5]: 3.61
pKd [6]: below the threshold
pKd [7]: below the threshold
pKd [8]: 3.64
pKd [9]: below the threshold
pKd [10]: below the threshold
pKd [11]: below the threshold
pKd [12]: below the threshold
pKd [13]: 3.88
pKd [14]: 5.01
pKd [15]: below the threshold
pKd [16]: 4.36
pKd [17]: below the threshold
pKd [18]: 3.69
pKd [19]: 4.59
pKd [20]: 3.94
pKd [21]: below the threshold
pKd [22]: 4.28
pKd [23]: 4.59
pKd [24]: 4.64
pKd [25]: below the threshold
pKd [26]: 4.72

Source: publication PMC9482650, “Quantitative fragmentomics allow affinity mapping of interactomes” (Nature Communications, 2022)
